Our source for the Kd values is paper PMC5040716.

This data set has as its system MgaSpn-His (Streptococcus pneumoniae). The experiment in a line: EMSA. The conditions noted are these: MgaSpn EMSA: 40 mM Tris-HCl pH 7.6, 1 mM DTT, 0.4 mM EDTA, 1-2% glycerol, 50 mM NaCl, 10 mM MgCl2, 500 ug/ml BSA, 2 nM DNA, ambient, 20 min; MgaSpn footprint: …. On the technique in general: In EMSA bound probe runs differently from free probe, usually more slowly.

In the case of hlyR 288-bp fragment, the equilibrium dissociation constant (Kd) (in general, a measure of binding affinity in units of concentration) was 50 nM.

Consider hlyC 290-bp fragment, for which the Kd amounted to 75 nM.
